Laboratory results from patent US20210261606A1 (JSR, published 2021).
Changes are numbered by the printed parent chain.

B1: mutant VHH antibody 2bS13-97H (VHH)
VHH: QVQLVESGGGLVQAGGSLRLSCAASGISFAINNVAWYRQAPGKQRDLVALIDKYDTGNIADSVKGRFSISRDNAKNTAYLQMNSLKPEDTAVYYCNHLGTWIRAGPYWGQGTQVTVSS
B2: mutant VHH antibody 2bS13-102H (VHH)
VHH: B1 VHH with H97A, I102H
notes: also called 2b513-102H
B3: mutant VHH antibody 2bS13-100H (VHH)
VHH: B1 VHH with H97A, T100H
notes: also called 2bS13-100H/PB (as ligand on the carrier)

Target: T1, trastuzumab Fab
T1 construct: Made by papain digestion of trastuzumab (Herceptin); also called Fab of trastuzumab (Herceptin)
Test: Biacore SPR, trastuzumab Fab immobilized, VHH as analyte, pH 7.4
Method: Those VHH antibodies were dispersed in HBS-EP (10 mM Hepes, 150 mM NaCl, 3 mM EDTA, and 0.005% Tween-20) to produce 12.5 to 150 nM VHH antibody solutions. The trastuzumab Fab prepared in Test Example 1 was immobilized on a Biacore sensor chip, and each VHH antibody solution was applied thereto. The measurements were performed under neutral conditions (pH 7.4). Curve fitting utilizing binding model was applied to association and dissociation behaviors, whereby evaluating the association rate constant (Kon), the dissociation rate constant (Koff), and the affinity (KD). Furthermore, this sensor chip was washed with an acidic eluent (10 mM Glycine-HCl+0.5M NaCl, pH 2.0) to measure a signal. From the obtained signal shape, the elution behavior of Ig by the acid was examined.

Binder	Kd [nM]	koff [s⁻¹]	kon [M⁻¹ s⁻¹]
B1	0.205	0.004	1.97e+07
B2	1.44	0.0227	1.58e+07
B3	0.376	0.0078	2.08e+07
